In the supplement of paper PMC9170038:

System: K4 kissing-loop RNA reporter
Assay: apparent KD of K4 kissing-loop reporter; higher = weaker reporter binding
Details: Eterna round: R107
Description: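 RNA-MaP round R107: designed RNA switches with theophylline, tryptophan, arginine or FMN aptamers are transcribed on-chip within common flanks. They are titrated with a labelled K4 kissing-loop RNA reporter in RNA-MaP buffer (100 mM Tris pH 7.5, 80 mM KCl, 4 mM MgCl2), without ligand or with the indicated ligand. Median apparent KD per design.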

[1] = input ligand: theophylline 20 uM
[2] = input ligand: tryptophan 2.4 mM
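Further: bound reporter read as fluorescence of individual clusters on recovered sequencing chips by microscopy, with normalized cluster intensities fitted with a binding model.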

| Sequence | apparent KD of K4 kissing-loop reporter (input ligand: FMN 200 uM) [nM] | apparent KD of K4 kissing-loop reporter (input ligand: arginine 13.2 mM) [nM] | apparent KD of K4 kissing-loop reporter (input ligand: none) [nM] | apparent KD of K4 kissing-loop reporter [1] [nM] | apparent KD of K4 kissing-loop reporter [2] [nM] |
| --- | --- | --- | --- | --- | --- |
| AGUACAAUGGCGGCCGCCACUCAAUGGCAGAUCAAAGAUCUGUAUCACUCAGUGAUGUUGAGUGAGAGGACCGGGCCUUUGUACA [Omei KL Tryp B SS B v9] | 604 | 477 | 500 | 514 | 187 |
| UUUGGAGUGGGAGGAUAUCCUAAUAUGGGUGAUGUUAGCGAUGUUGAAGGUGUAGUGAUGUUAUGCGGAGAAGGCCCAGUGUAGA [BDazzled - #18 - Exc. FMN B] | 166 | 146 | 245 | 273 | 221 |
| AAGGUAUCUAGAUGCUAGCAACAACUAGAUACCAGCAUCGAAAGAUGCCCUUGGCAGCUAGCAGUGAUGUUGCUAGCAAUAAGAA [Design4] | 152 | 130 | 131 | 158 | 131 |
| GCCGUACGCAUGGAUACCAGCUACUAGAGUGAUGUUCUAUGGCCCUGCCAAUGGAGCUGUAGCCCUUGGCAGCCAUGCGUACGGC | 130 | 125 | 105 | 122 | 126 |
| UAUUAAUUGUCAGGAUAUCGAAAUCGAGUGAUGUUCGUAUAUCGACGAUAGUCGAUAUUAUUUAUACGAGAAGGGACAUUAUUUA [JR_SSFMNB_Sub003] | 347 | 572 | 615 | 615 | 386 |
| GGAUAGGACAGAGGAUAUGGUAGUGAUGUUACCAAACUGGUUACUCUUGUCAGAAAACUGGCAUUUCCAGAAGGCUGUCCUAUCG [KL-XFMN-B11] | 599 | 75.1 | 92.2 | 84.9 | 104 |
| AGUUUAUAGGAGGAUACCAGUACGGAUAAGGUACGUUAAUAGUAGAGUGAUGUUCUAAAGUACCCUUGGCAGCUUAGAUUGAGUU [#27 K4 Theophylline B Exclusion] | 110 | 171 | 130 | 133 | 101 |
| GGUAGCAUGGCGGCCGCCACUAAGAGAGUGAUGUUCUCUUAGUUUUUUGAUGUGUUAUCAAUUCUUAGGACCGGGCCAUGCUACC | 111 | 92.4 | 98.2 | 99.8 | 109 |
| CGUUUAUAGCAGGAUACCAGUACCCAUUAUGUACGUUUAUAGUAGAGUGAUGUUCUAAAGUACCCUUGGCAGCUUCCUGUGACCC [ExTheophylB.Aa] | 166 | 168 | 181 | 194 | 145 |
| AAAUUCUUUUUUUUAUAUAACAAUUCAGAAGGAGCGUGGUAGAACACAGGUAGGUCGCUGAAUAUAAGACUAGUGAUGUUAGUAA [JR_SSArginiA_Sub010] | 153 | 192 | 203 | 214 | 153 |
| UUCUACGAGUGAUGUUCGUAGUGUAUUCGCUAGGAUAUCGUUUUUUCGAGAAGGAGUGAUGAAGUGAUACGAAAGUAUCGCUUCU [FMN A 14] | 223 | 241 | 352 | 411 | 292 |
| CCAUCGCUAUUCGAUACCAGCUACUUAGUGAUGUUAAGUUAAAAUCAAUUGUAGAUUGAAAGCCCUUGGCAGCGAAUAGUGAUGG [Theophylline B K4 21] | 157 | 123 | 139 | 83.8 | 135 |
| UGAUACCAGACUGAUACCAGCUAGUGAUGUUAGCUGAUCUAAGGACCGUCAAAGACGGCUAGCCCUUGGCAGCAGUCUGGUAUCU [TheoBX 13 #SwitchBubble #StaticStem] | 120 | 105 | 121 | 130 | 121 |
| AUUCUAUUGUGAAGGAGCGCGACUAGUAGUGAUGUUACUAUAUGACUUUAGUCUUAAUUCUCGCAGGUAGGUCGCACAAUAUAUA [JR_Nu_SSArginiB_Sub028] | 913 | 594 | 796 | 732 | 755 |
| UGUAUGGACUGAAGGAGCGCUAGGAAAGUGAGUGAUGUUCAUAUAAAAGUAUAAAGGGUUUGGCAGGUAGGUCGCAGUCCAUACU [KL-SSArg B5] | 225 | 344 | 234 | 270 | 135 |
| UGACUGGAUGGAAGGAGCGCUAAACUCCUAGUGAUGUUAGGGAUAUGAGGCAAAGCCUCGAGGCAGGUAGGUCGCCAUCUAGUCU [FiskerMod 19 - Jieux - Same State - Arginine B] | 138 | 114 | 135 | 142 | 122 |
| AGUGGACAUGUCUAGAGUGAUGUUCUGGAUACCAGACACGAAAGUGUCCCUUGGCAGCCGGAGUGAUGUUCUGGCGUUCACUAAA [Omei KL Theo A Exc B v7] | 476 | 267 | 405 | 414 | 341 |
| AUGCCUCUGGCUGAUACCAGUGAUGCAGGGUAUGAGACAGGGAGUGAUGUUCCCUGCAGCCACCCUUGGCAGCAGUUUAAGUUUG [Exclusion Theophylline B GF 20] | 184 | 180 | 185 | 197 | 168 |
| AAUAUACAGGGAAGGAGCGCCGUCCAGUGAUGUUGGAGUUAAAUACCAGUGAUGUUGGUUAGGCAGGUAGGUCGCCCUAAAGUAU [Exclusion Arginine B Gf 2] | 125 | 82.7 | 105 | 102 | 96.7 |
| AAUUUAUUAACUGAUACCAGACUUUAAUUUAUAUAUAUGUCUAGUGAUGUUAAACAUAUUGUCCCUUGGCAGCAGUAUUUAUUAA [JR_SSTheophyB_Sub020] | 761 | 399 | 755 | 768 | 536 |
| UGACAUUGCUCAGAUACCAGACUUGAGGAACACCCAAGUGCCAAACGUACAAUAAUAAAAGUCCCUUGGCAGCUGAGCAAUGUCU [TheoBX 14] | 111 | 53.6 | 82.1 | 62.8 | 59.8 |
| AAGUGAUGUUGUAGUGAUGUUGUGAUGUUGCAGGAUAUAUAGUGAUGUAGAAGGGUAAGUACUUAUUUUUUUUUUGAGUGAUGUU [vcbczrmullin] | 96.6 | 45 | 76.5 | 58 | 83.7 |

| Sequence | apparent KD of K4 kissing-loop reporter (input ligand: FMN 200 uM) [nM] | apparent KD of K4 kissing-loop reporter (input ligand: arginine 13.2 mM) [nM] | apparent KD of K4 kissing-loop reporter (input ligand: none) [nM] | apparent KD of K4 kissing-loop reporter [1] [nM] | apparent KD of K4 kissing-loop reporter [2] [nM] |
| --- | --- | --- | --- | --- | --- |
| GCGCGUCAUGUCAGCGGUGCCUAUGUCGAUACCAGCGCCGCAAGGCGCCCUUGGCAGCGACGCGCUGGAGUGAUGUUCCAGCGUG [#2 Exclusion - Theophylline A Attempt #11 (HarryS)] | 148 | 127 | 153 | 138 | 132 |
| GGGUUUGACGGAGGAUAUGCACUGAGGAGGAGAAUAUAGUGAUGUUAUAUAAGAGGAAGGAGAAGAGUAGAAGGCCGUUGGGUUU [SSFMNB.L] | 124 | 131 | 139 | 165 | 104 |
| UGAGGAGAUUAUGAUACCAGCAGAGAGAGAGAGGAAGUAUAGUGAUGUUAUAUGAGAUAAUGCCCUUGGCAGCAUAAGAAGAAGG [#20 K4 Theophylline B Same State] | 182 | 133 | 148 | 147 | 140 |
| UUUAAAUAUAGUGAUGUUAUAUAACAAUGACGAGGACCGGUACGGCCGCCACUCGAGAGAGAUAAUGGUCAUGCAAAUGUAUGUC [#15 K4 Tryptophan A Same State] | 674 | 684 | 789 | 746 | 615 |
| AAAACUAUCAGAAGGAGCGUGGAAUAUUCAUCUGUAUUUAAUACGAGUGAUGUUCGUAAUUCACAGGUAGGUCGCUGAUCAAUAA [whbob_Ex_Arginine_B_2th154] | 269 | 253 | 306 | 305 | 254 |
| AAGAAUAAUCUUGCAGUGAUGUUGCAAGAUACCAGCAUCGAAAGAUGCCCUUGGCAGCUUGAAACUGCAAGAAUCAAGCUGAAUA [Design1] | 150 | 131 | 140 | 145 | 137 |
| UGACUGGAUUGAAGGAGCGCUAAACUCCUAGUGAUGUUAGGGAAACAAGACAAAGUCUUGAGGCAGGUAGGUCGCAAUCUAGUCU [FiskerMod 4 - Jieux - Same State - Arginine B] | 182 | 149 | 173 | 234 | 175 |
| CGUGAAGACCAGAGGUGAUGUAUAGUAUCGCGAGGACCGGUACGGCCGCCACUCGUGAAGAGAAAGGAGUGAUGUUCCGUAAUGG [C12] | 246 | 239 | 312 | 326 | 107 |
| CAUAGACAAGUGAUGUUUGUCAUAACCGAAGGAGCGUCUUUAAAGACAGGUAGGUCGCGGAUUAAUUAAGUUAUGAUUCUUUUUA [JR_SSArginiA_Sub017] | 630 | 572 | 661 | 642 | 531 |
| CAACAGCUUACGGCCGCCACUCCUUUAUAUGGUGCGCACCGUUGAGCUCUAGUGAUGUUGGUGCCGAGGACCGGGUAGGAAAGUA [theeternabot_sameState_KL_Trp_B_31] | 468 | 245 | 331 | 448 | 412 |
| GUGCGCGCGGCGGCCGCCACUCGCAUGAGAGUGAUGUUCUCGGGACUGACGCAAGUCAGUCAUGUGAGGACCGGGCCGGGCUGCG [#2 Same State - Tryptophan B Attempt #12 (HarryS)] | 1060 | 1640 | 447 | 769 | 423 |
| GGACGACAGUCGGCCGCCACUCACAGCAGCCAGUGAUGUUGGAUUGUAGCGGAGUGAUGUUUCGCGAGGACCGGGACUGCAGUCC [Same State Tryptophan B GF 14] | 190 | 171 | 227 | 226 | 199 |
| AAUAUAUAGUGAAGGAGCGCGUAUUGCAGUGAUGUUGCUAAGUUAUUAUUAUCUAUUUUUACGCAGGUAGGUCGCACUAUAUAUA [JR_SSArginiB_Sub014] | 213 | 231 | 224 | 245 | 193 |
| AGCGAGAUACUUGUCUAGUAUACUACAGAUACCAGACAAGUACUAGUCCCUUGGCAGCUGUAGAUCGAGUGAUGUUCGAGUCGCU [Theo A SS t1] | 527 | 415 | 516 | 430 | 389 |
| ACGGAUUCGAAUACCGAAUGAAAUAGGGAUACCAGCACGUGAACGUGCCCUUGGCAGCCCAGCCCAGUGAUGUUGGGCCCAUGGC [Biso] | 173 | 185 | 179 | 212 | 204 |
| GAGAUAGCGACGGCCGCCACUAGUGAUGUUAGUGCUGGUAGAUAGAUACUGGAACAGAAAUGACGUAGGACCGGGUCAGAUAGAG [#01 K4 Tryptophan B Exclusion] | 264 | 233 | 292 | 334 | 247 |
| CGGCUUAGUAGCGCGAGUUGACGUGCCAUCCGAGGACCGGUACGGCCGCCACUCGUGAUCUGUUAAAGUGAUGUUUUAAUGCCAU | 722 | 602 | 712 | 711 | 639 |
| AACCGUGUGGCGGCCGCCACUAGUCUCCAGUGAUGUUGGAGAGACCACGUAAGUGGUCUCCGACAUAGGACCGGGCCAUAUGGAA [Same State - Tryptophan B (Freestyle 25)] | 547 | 339 | 361 | 531 | 692 |
| AGAAACUUGUAUGUCGAGUGUGCGCGCGAUACCAGCCAAAUGGAUGGCCCUUGGCAGCGCUGCGAGUGAUGUUCGCCCGCUUGAC [#18 K4 Theophylline A Exclusion] | 210 | 244 | 203 | 192 | 174 |
| AAAUAGAUCAGUCAUCCAGUGAUGUUGGAAGGAGCGUGCGAAAGCACAGGUAGGUCGCCAAAAUAAAACUGGCUGAUCAAAAUAA | 292 | 292 | 338 | 453 | 270 |
| GGAUAGGACAAAGGAUAUGGGCUAGGCAAGAAUAACUUGUCUAGCAAAUCCAUGAGGAGUGAUGUUCCAGAAGGUUGUCCUAUCG [FmnBX 1 A11+U75] | 624 | 116 | 122 | 127 | 107 |
